Measurements as given in paper PMC8685902, “Perception of structurally distinct effectors by the integrated WRKY domain of a plant immune receptor”.

Key:
[1] = biological target: AtWRKY41 (Thr125 to Ile204), DNA-binding domain (Arabidopsis) (UniProt Q8H0Y8); test: ITC; AvrRps4^C (wild type or mutant) titrated into a solution of the WRKY domain; three independent experiments fitted globally to a 1:1 binding model (AFFINImeter)
[2] = biological target: RRS1B^WRKY, integrated WRKY domain of RRS1B (Asn1164 to Thr1241) (Arabidopsis) (UniProt Q9FL92); test: as above
Chain of RRS1B^WRKY, integrated WRKY domain of RRS1B (Asn1164 to Thr1241) (Arabidopsis) (Q9FL92 1164-1241): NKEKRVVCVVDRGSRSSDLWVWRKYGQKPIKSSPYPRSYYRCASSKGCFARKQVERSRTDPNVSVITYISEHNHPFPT

[3] = biological target: RRS1^WRKY, integrated WRKY domain of RRS1-R (residues 1194 to 1273) (Arabidopsis); test: as above
[4] = biological target: AvrRps4^C, in planta processed C-terminal fragment of AvrRps4 (residues 134 to 221) (Pseudomonas syringae pv. pisi); test: SEC; analytical gel filtration on a Superdex 75 10/300 column; proteins alone and after incubation at an equimolar (1:1) ratio
[5] = biological target: RRS1^WRKY, integrated WRKY domain of RRS1-R (residues 1194 to 1273) (Arabidopsis); test: as above
[6] = biological target: AtWRKY41 DNA-binding domain (Thr125-Ile204) (Arabidopsis) (UniProt Q8H0Y8); test: ITC; MicroCal PEAQ-ITC; cell 20 uM RRS1WRKY, AtWRKY41 or RRS1BWRKY, syringe 200 uM AvrRps4C wild type or mutant; 25 C; buffer A4 (20 mM HEPES pH 7.5, 150 mM NaCl); triplicate, global fit to a 1:1 binding model (AFFINImeter)
[7] = biological target: RRS1B^WRKY, integrated WRKY domain of RRS1B (Asn1164-Thr1241) (Arabidopsis) (UniProt Q9FL92); test: as above
Chain of RRS1B^WRKY, integrated WRKY domain of RRS1B (Asn1164-Thr1241) (Arabidopsis) (Q9FL92 1164-1241): as above

[8] = biological target: T1, AtWRKY41 DNA-binding domain (UniProt Q8H0Y8 125-204); test: EMSA; no effector; EMSA: 10 mM Tris-Cl pH 7.5, 50 mM KCl, 1 mM DTT, 5% glycerol; SPR: 10 mM HEPES pH 7.5, 250 mM NaCl, 0.005% Tween-20, 25 C (Biacore 8K, ReDCaT); settings: protein: recombinant; tags: 6xHis-MBP (pOPIN-M), cleaved with 3C; label: 5' Cy3 on forward strand; blunt
T1 sequence: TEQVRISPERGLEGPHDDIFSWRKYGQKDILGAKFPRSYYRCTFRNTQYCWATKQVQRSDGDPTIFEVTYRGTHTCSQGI

[9] = biological target: T2, RRS1 WRKY domain (RRS1-R) (UniProt C4B7M5 1194-1273); test: as above; settings: protein: recombinant; tags: 6xHis-MBP (pOPIN-M), cleaved with 3C; label: 5' Cy3 on forward strand; blunt
T2 sequence: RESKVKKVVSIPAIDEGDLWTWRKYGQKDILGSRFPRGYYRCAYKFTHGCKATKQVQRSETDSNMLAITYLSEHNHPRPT

**Q.** “AvrRps4^C, in planta processed C-terminal fragment of AvrRps4 (residues 134 to 221) (domain or fragment)” was tested. Which Kd [1] did it give?
**A.** 20 nM

**Q.** What about the fold weaker binding than to RRS1^WRKY [2] of the same molecule?
**A.** 3 fold

**Q.** What about the Kd [3] of the same molecule?
**A.** 103 nM

**Q.** And the stoichiometry N [3]?
**A.** 1

**Q.** What about the stoichiometry N [4] of the same molecule?
**A.** 2

**Q.** What about the stoichiometry N [5] of the same molecule?
**A.** 1

**Q.** For AvrRps4^C Q194A (domain or fragment), which fold reduction in affinity against wild-type AvrRps4^C [3] is on record?
**A.** 7 fold

**Q.** How did the stoichiometry N [6] turn out when “AvrRps4^C, the in planta processed C-terminal fragment of AvrRps4 (residues 134-221) (domain or fragment)” was run?
**A.** 1.1

**Q.** What about the stoichiometry N [7] of the same molecule?
**A.** 0.8

B1: Cy3 W-box DNA (dsDNA)
DNA 1: CGCCTTTGACCAGCGC
DNA 2: GCGCTGGTCAAAGGCG
**Q.** Which results are given for B1?
**A.** binding result [8]: binds; binding result [9]: binds
